This test has as its target HA-tagged p62 (SQSTM1) (UniProt Q13501). Nature of the test: coimmunoprecipitation and immunoblot, quantified. To be noted: 293T cells; 0.2 μM Baf A1 for 6 h; parent: est. 1.0; read off a plot. Background: A western blot detects proteins with antibodies after separation by electrophoresis.
Turning to “Flag-tagged dengue virus (DENV) capsid protein K6R”, the ratio to parent came to 0.81.
“Flag-tagged dengue virus (DENV) capsid protein K76R”: the ratio to parent turned out to be 0.22.
The value for “Flag-tagged dengue virus (DENV) capsid protein K17R” was 1.1.

For the origin of these results see PMC9294600.
